Laboratory results reported in IntAct's records for PubMed 11259609.

B1: Aryl hydrocarbon receptor (Homo sapiens), P35869 (parent)
chain: MNSSSANITYASRKRRKPVQKTVKPIPAEGIKSNPSKRHRDRLNTELDRLASLLPFPQDVINKLDKLSVLRLSVSYLRAKSFFDVALKSSPTERNGGQDNCRAANFREGLNLQEGEFLLQALNGFVLVVTTDALVFYASSTIQDYLGFQQSDVIHQSVYELIHTEDRAEFQRQLHWALNPSQCTESGQGIEEATGLPQTVVCYNPDQIPPENSPLMERCFICRLRCLLDNSSGFLAMNFQGKLKYLHGQKKKGKDGSILPPQLALFAIATPLQPPSILEIRTKNFIFRTKHKLDFTPIGCDAKGRIVLGYTEAELCTRGSGYQFIHAADMLYCAESHIRMIKTGESGMIVFRLLTKNNRWTWVQSNARLLYKNGRPDYIIVTQRPLTDEEGTEHLRKRNTKLPFMFTTGEAVLYEATNPFPAIMDPLPLRTKNGTSGKDSATTSTLSKDSLNPSSLLAAMMQQDESIYLYPASSTSSTAPFENNFFNESMNECRNWQDNTAPMGNDTILKHEQIDQPQDVNSFAGGHPGLFQDSKNSDLYSIMKNLGIDFEDIRHMQNEKFFRNDFSGEVDFRDIDLTDEILTYVQDSLSKSPFIPSDYQQQQSLALNSSCMVQEHLHLEQQQQHHQKQVVVEPQQQLCQKMKHMQVNGMFENWNSNQFVPFNCPQQDPQQYNVFTDLHGISQEFPYKSEMDSMPYTQNFISCNQPVLPQHSKCTELDYPMGSFEPSPYPTTSSLEDFVTCLQLPENQKHGLNPQSAIITPQTCYAGAVSMYQCQPEPQHTHVGQMQYNPVLPGQQAFLNKFQNGVLNETYPAELNNINNTQTTTHLQPLHHPSEARPFPDLTSSGFL
partner: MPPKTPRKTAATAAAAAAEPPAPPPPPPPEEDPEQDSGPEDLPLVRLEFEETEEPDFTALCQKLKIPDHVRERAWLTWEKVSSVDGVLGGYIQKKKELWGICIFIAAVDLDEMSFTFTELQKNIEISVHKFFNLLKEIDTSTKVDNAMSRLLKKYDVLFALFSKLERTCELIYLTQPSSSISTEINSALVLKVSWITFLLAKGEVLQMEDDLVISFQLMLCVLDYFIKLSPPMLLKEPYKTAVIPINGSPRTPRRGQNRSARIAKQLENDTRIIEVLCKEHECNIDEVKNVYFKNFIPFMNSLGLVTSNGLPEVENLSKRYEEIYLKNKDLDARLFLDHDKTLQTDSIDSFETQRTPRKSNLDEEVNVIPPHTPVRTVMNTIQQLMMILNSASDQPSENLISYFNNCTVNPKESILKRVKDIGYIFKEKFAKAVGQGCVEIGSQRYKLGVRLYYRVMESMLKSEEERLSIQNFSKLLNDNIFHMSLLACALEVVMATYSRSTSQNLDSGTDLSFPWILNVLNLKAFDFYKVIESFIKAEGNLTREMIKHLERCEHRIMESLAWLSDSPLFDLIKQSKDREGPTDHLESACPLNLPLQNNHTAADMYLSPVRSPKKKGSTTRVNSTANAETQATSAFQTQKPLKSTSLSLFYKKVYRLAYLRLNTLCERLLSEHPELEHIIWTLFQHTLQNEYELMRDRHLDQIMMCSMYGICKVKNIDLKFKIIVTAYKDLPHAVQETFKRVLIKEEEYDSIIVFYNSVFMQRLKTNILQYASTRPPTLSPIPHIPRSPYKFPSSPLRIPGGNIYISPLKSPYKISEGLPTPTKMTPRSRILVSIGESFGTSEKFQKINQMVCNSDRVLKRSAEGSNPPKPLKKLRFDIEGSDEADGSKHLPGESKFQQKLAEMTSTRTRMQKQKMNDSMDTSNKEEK

Variants of: B1
Settings: with rb_human RB1, P06400

| Variant | effect of a mutation on the interaction |
| --- | --- |
| E335A | disrupting interaction strength |
| C333A | disrupting interaction strength |
| L331A | disrupting interaction strength |
